Results: the supplement of paper PMC6757056
± gives the standard deviation of the averaged measurements.

B1: library; a variant is named by its letters at N, in order (parent)
chain: GCUGUCACCGAGAAACUGUGAAGUAUAUCUUAAACCUGGGCACUUAAAAGAUAUAUGGAGUUAGUAGUGCAACCUGCUCGGUCUGAUGAGUCCNNNNNNGGACGAAACAGC

How the values were obtained:
cyclic di-GMP [1] = variants of: B1; assay: normalized RNA/DNA level without ligand (relative to sTRSVctl = 100) (log10 (% of sTRSVctl)); HEK293T; ligand: cyclic di-GMP (c-di-GMP-II aptamer); higher = less ribozyme self-cleavage, higher mRNA level; conditions: reporter: mCherry (pCS4076), ligand present: no
How it was run: (§1)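 HEK293T cells were transfected with library plasmids carrying ribozyme switches linked to an mCherry reporter, or an eGFP reporter in some ligand experiments, at 4 µg per well of a 6-well plate, with any ligand added 1 h beforehand. After 72 h, total RNA was extracted with EDTA, reverse-transcribed, amplified, barcoded and sequenced. RNA level was defined as RNA reads over DNA reads, normalized to a spiked-in non-cleaving sequence or to the top-ranked sequences. That value was multiplied by 100 and converted to log10, the top set was 25 sequences, and only sequences with ≥100 DNA reads were retained.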

cyclic di-GMP [2] = variants of: B1; assay: normalized RNA/DNA level with ligand (relative to sTRSVctl = 100) (log10 (% of sTRSVctl)); HEK293T; ligand: cyclic di-GMP (c-di-GMP-II aptamer); ligand concentration (+) RNA-Seq: 1 mM; higher = less ribozyme self-cleavage, higher mRNA level; conditions: reporter: mCherry (pCS4076), ligand present: yes
How it was run: as §1

Row | Variant | normalized RNA/DNA level without ligand (log10) (cyclic di-GMP [1]) | normalized RNA/DNA level with ligand (log10) (cyclic di-GMP [2])
1 | GGAAUC | 1.55 ± 0.016 | 1.76 ± 0.09
2 | CGAGUU | 1.72 ± 0.08 | 1.84 ± 0.094
3 | CGAGUG | 1.7 ± 0.049 | 1.83 ± 0.15
4 | CGAGUA | 1.7354 ± 0.0011 | 1.79 ± 0.11
5 | CGAGUC | 1.76 ± 0.065 | 1.88 ± 0.12
6 | AGCAUA | 1.52 ± 0.083 | 1.73 ± 0.074
7 | AGCAUC | 1.8 ± 0.021 | 1.88 ± 0.12
8 | AGCAUU | 1.66 ± 0.0074 | 1.84 ± 0.073
9 | CGAAAU | 1.42 ± 0.055 | 1.63 ± 0.12
10 | CGAAAG | 1.78 ± 0.056 | 1.88 ± 0.046
11 | UGCCCC | 1.857 ± 0.013 | 1.93 ± 0.092
12 | UGCCCU | 1.79 ± 0.021 | 1.89 ± 0.057
13 | UGCCCA | 1.88 ± 0.032 | 1.96 ± 0.096
14 | CGCCGC | 1.8 ± 0.068 | 1.91 ± 0.11
15 | CGCCGA | 1.6 ± 0.065 | 1.81 ± 0.072
16 | UGACCA | 1.7585 ± 0.0012 | 1.88 ± 0.074
17 | UGACCU | 1.72 ± 0.016 | 1.87 ± 0.087
18 | UGACCC | 1.798 ± 0.013 | 1.89 ± 0.087
19 | CGAUCC | 1.82 ± 0.026 | 1.9 ± 0.088
20 | CGAUCU | 1.52 ± 0.053 | 1.7 ± 0.073
21 | CGAUCA | 1.6 ± 0.026 | 1.74 ± 0.12
22 | CGAUCG | 1.8 ± 0.04 | 1.87 ± 0.1
23 | AGAGUU | 1.6 ± 0.016 | 1.8 ± 0.14
24 | AGAGUC | 1.6 ± 0.02 | 1.76 ± 0.097

Row | Variant | normalized RNA/DNA level without ligand (log10) (cyclic di-GMP [1]) | normalized RNA/DNA level with ligand (log10) (cyclic di-GMP [2])
25 | AGAGUA | 1.66 ± 0.029 | 1.73 ± 0.081
26 | AGAGUG | 1.72 ± 0.029 | 1.8 ± 0.09
27 | UGAGGA | 1.54 ± 0.091 | 1.75 ± 0.088
28 | UGAGGC | 1.74 ± 0.028 | 1.87 ± 0.12
29 | UGAGGU | 1.61 ± 0.052 | 1.79 ± 0.12
30 | UGAGGG | 1.63 ± 0.045 | 1.79 ± 0.083
31 | UGAAAA | 1.73 ± 0.024 | 1.82 ± 0.1
32 | UGAAAC | 1.705 ± 0.017 | 1.84 ± 0.062
33 | UGAAAG | 1.77 ± 0.047 | 1.87 ± 0.1
34 | UGAGAU | 1.608 ± 0.0039 | 1.78 ± 0.11
35 | UGAGAC | 1.71 ± 0.022 | 1.8 ± 0.093
36 | UGAGAA | 1.6654 ± 7.7e-05 | 1.81 ± 0.1
37 | UGAGAG | 1.6931 ± 0.00099 | 1.87 ± 0.098
38 | AGCCGA | 1.748 ± 0.014 | 1.84 ± 0.14
39 | AGAAUA | 1.43 ± 0.091 | 1.63 ± 0.098
40 | GGAUGC | 1.7 ± 0.079 | 1.83 ± 0.067
41 | GGCCAU | 1.73 ± 0.03 | 1.84 ± 0.1
42 | GGCCAC | 1.7289 ± 0.0006 | 1.88 ± 0.083
43 | GGCCAG | 1.74 ± 0.0068 | 1.85 ± 0.025
44 | GGCCAA | 1.638 ± 0.01 | 1.74 ± 0.1
45 | GGCACU | 1.73 ± 0.12 | 1.885 ± 0.0081
46 | GGCACC | 1.75 ± 0.06 | 1.82 ± 0.085
47 | GGCACA | 1.69 ± 0.024 | 1.8 ± 0.12
48 | GGCACG | 1.76 ± 0.026 | 1.88 ± 0.039

Row | Variant | normalized RNA/DNA level without ligand (log10) (cyclic di-GMP [1]) | normalized RNA/DNA level with ligand (log10) (cyclic di-GMP [2])
49 | CGAGCC | 1.824 ± 0.0092 | 1.88 ± 0.083
50 | CGAGCA | 1.83 ± 0.067 | 1.89 ± 0.12
51 | CGAGCU | 1.82 ± 0.022 | 1.88 ± 0.077
52 | CGAUAG | 1.7 ± 0.056 | 1.87 ± 0.12
53 | CGAUAC | 1.61 ± 0.033 | 1.77 ± 0.084
54 | AGAUCA | 1.59 ± 0.076 | 1.74 ± 0.081
55 | AGAUCU | 1.72 ± 0.045 | 1.85 ± 0.084
56 | AGAUCG | 1.72 ± 0.051 | 1.88 ± 0.061
57 | AGAUCC | 1.81 ± 0.016 | 1.89 ± 0.038
58 | GGCCCU | 1.877 ± 0.012 | 1.94 ± 0.057
59 | GGCCCA | 1.8 ± 0.035 | 1.88 ± 0.082
60 | GGCCCC | 1.92 ± 0.045 | 2 ± 0.13
61 | AGACAG | 1.55 ± 0.049 | 1.75 ± 0.15
62 | AGACAU | 1.62 ± 0.027 | 1.79 ± 0.12
63 | AGACAC | 1.68 ± 0.042 | 1.82 ± 0.1
64 | AGAAGU | 1.57 ± 0.022 | 1.75 ± 0.16
65 | AGAAGC | 1.56 ± 0.13 | 1.74 ± 0.077
66 | CGACGC | 1.74 ± 0.04 | 1.82 ± 0.12
67 | CGACGU | 1.66 ± 0.034 | 1.84 ± 0.048
68 | CGACGG | 1.667 ± 0.013 | 1.8 ± 0.16
69 | AGAUAC | 1.64 ± 0.029 | 1.79 ± 0.12
70 | AGAUAU | 1.61 ± 0.046 | 1.78 ± 0.14
71 | AGAUAG | 1.53 ± 0.11 | 1.71 ± 0.086
72 | UGAGCU | 1.76 ± 0.0029 | 1.87 ± 0.1

Row | Variant | normalized RNA/DNA level without ligand (log10) (cyclic di-GMP [1]) | normalized RNA/DNA level with ligand (log10) (cyclic di-GMP [2])
73 | UGAGCC | 1.84 ± 0.02 | 1.91 ± 0.14
74 | UGAGCA | 1.84 ± 0.073 | 1.91 ± 0.11
75 | UGAGCG | 1.8 ± 0.12 | 1.86 ± 0.16
76 | GGAGAC | 1.72 ± 0.035 | 1.85 ± 0.059
77 | UGCACG | 1.801 ± 0.014 | 1.91 ± 0.14
78 | UGCACA | 1.76 ± 0.05 | 1.89 ± 0.12
79 | UGCACC | 1.74 ± 0.036 | 1.84 ± 0.14
80 | UGCACU | 1.74 ± 0.021 | 1.87 ± 0.094
81 | UGCAAG | 1.777 ± 0.0085 | 1.9 ± 0.088
82 | UGCAAA | 1.74 ± 0.0094 | 1.84 ± 0.1
83 | UGCAAC | 1.728 ± 0.0076 | 1.87 ± 0.099
84 | UGAUUA | 1.704 ± 0.011 | 1.84 ± 0.11
85 | UGAUUC | 1.71 ± 0.019 | 1.86 ± 0.08
86 | UGAUUG | 1.718 ± 0.017 | 1.88 ± 0.088
87 | CGAUUG | 1.7 ± 0.019 | 1.89 ± 0.03
88 | CGAUUU | 1.43 ± 0.11 | 1.64 ± 0.13
89 | CGAUUA | 1.28 ± 0.11 | 1.43 ± 0.12
90 | CGAUUC | 1.63 ± 0.022 | 1.81 ± 0.075
91 | UGAAUG | 1.72 ± 0.037 | 1.86 ± 0.12
92 | UGAAUA | 1.677 ± 0.0075 | 1.82 ± 0.096
93 | UGAAUU | 1.683 ± 0.0066 | 1.84 ± 0.13
94 | GGAACC | 1.74 ± 0.039 | 1.86 ± 0.14
95 | GGAAGC | 1.634 ± 0.0082 | 1.76 ± 0.054
96 | UGCCAC | 1.77 ± 0.056 | 1.88 ± 0.15

Row | Variant | normalized RNA/DNA level without ligand (log10) (cyclic di-GMP [1]) | normalized RNA/DNA level with ligand (log10) (cyclic di-GMP [2])
97 | UGCCAA | 1.689 ± 0.0043 | 1.83 ± 0.12
98 | UGCCAU | 1.694 ± 0.0071 | 1.81 ± 0.11
99 | UGCCAG | 1.7634 ± 0.0015 | 1.87 ± 0.087
100 | GGAAAC | 1.74 ± 0.088 | 1.83 ± 0.19
101 | GGACUC | 1.757 ± 0.0094 | 1.92 ± 0.082
102 | CGAGAG | 1.72 ± 0.022 | 1.84 ± 0.033
103 | CGAGAC | 1.643 ± 0.0051 | 1.77 ± 0.16
104 | AGCACA | 1.58 ± 0.029 | 1.72 ± 0.12
105 | UGCAGG | 1.747 ± 0.003 | 1.85 ± 0.12
106 | UGCAGA | 1.63 ± 0.031 | 1.8 ± 0.096
107 | UGCAGC | 1.77 ± 0.031 | 1.87 ± 0.11
108 | UGCAGU | 1.66 ± 0.038 | 1.83 ± 0.11
109 | AGACUC | 1.74 ± 0.054 | 1.83 ± 0.094
110 | AGACUU | 1.679 ± 0.0077 | 1.84 ± 0.13
111 | AGACUG | 1.749 ± 0.013 | 1.84 ± 0.071
112 | CGCAGU | 1.679 ± 0.005 | 1.82 ± 0.092
113 | CGCAGC | 1.75 ± 0.027 | 1.87 ± 0.074
114 | CGCAGG | 1.61 ± 0.034 | 1.84 ± 0.03
115 | CGCAGA | 1.45 ± 0.08 | 1.68 ± 0.078
116 | GGAGCC | 1.85 ± 0.011 | 1.9 ± 0.1
